The record followed here is paper PMC7592150.

As a reminder, the Kd is the equilibrium constant for the complex coming apart. The low end stands for higher affinity, the high end for lower affinity.

In this test the target is PCSK9 (UniProt Q8NBP7). Nature of the test: SPR.
Chain of UniProt Q8NBP7 (Q8NBP7 31-692): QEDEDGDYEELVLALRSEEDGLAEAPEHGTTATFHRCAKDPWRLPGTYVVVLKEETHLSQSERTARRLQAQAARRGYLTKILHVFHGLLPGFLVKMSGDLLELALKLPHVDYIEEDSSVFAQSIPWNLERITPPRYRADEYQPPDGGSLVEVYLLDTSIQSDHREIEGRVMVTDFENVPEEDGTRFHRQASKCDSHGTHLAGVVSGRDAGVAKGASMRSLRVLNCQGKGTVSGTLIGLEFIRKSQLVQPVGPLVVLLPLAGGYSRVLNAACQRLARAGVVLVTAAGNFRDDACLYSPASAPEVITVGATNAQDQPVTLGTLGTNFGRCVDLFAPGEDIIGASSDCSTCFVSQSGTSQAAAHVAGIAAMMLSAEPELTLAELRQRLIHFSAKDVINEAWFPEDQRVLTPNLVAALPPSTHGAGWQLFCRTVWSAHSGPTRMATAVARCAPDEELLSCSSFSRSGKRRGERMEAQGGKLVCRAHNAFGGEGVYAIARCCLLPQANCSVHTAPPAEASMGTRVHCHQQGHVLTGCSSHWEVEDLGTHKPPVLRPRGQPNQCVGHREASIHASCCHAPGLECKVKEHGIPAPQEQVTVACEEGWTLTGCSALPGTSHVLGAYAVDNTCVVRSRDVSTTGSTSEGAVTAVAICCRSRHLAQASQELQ

In turn, Bococizumab (antibody) had an equilibrium dissociation constant (Kd) of 0.03 nM.
